Assays:
[1] = biological target: T1, human βNGF (Nerve Growth Factor) (human, UniProt P01138 122-241, limits assumed); assay: Biacore and flow cytometry-based antigen-binding assays
T1 construct: In the FACS rounds it was used biotinylated, fluorochrome-labelled or fused to wasabi fluorescent protein; The construct used in the Biacore runs is not described; also called hβNGF

[2] = biological target: T1, human βNGF (Nerve Growth Factor); assay: kinetic characterization (Biacore)
[3] = biological target: T1, human βNGF (Nerve Growth Factor); assay: Biacore, purified antibody captured at low density (Rmax<30)
Excerpt: Mutations observed in both strategies not utilized by APE803 were recombined by overlap extension PCR in a combinatorial library, each HC/LC pair was expressed and characterized on Biacore utilizing direct capture of secreted antibodies.

T1 sequence (P01138 122-241 limits assumed): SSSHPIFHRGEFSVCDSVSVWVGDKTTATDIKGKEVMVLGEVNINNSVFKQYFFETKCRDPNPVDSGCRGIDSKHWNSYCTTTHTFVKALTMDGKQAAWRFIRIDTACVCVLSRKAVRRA

B1: APE391 (antibody, V domains shown)
VH: QVQLVQSGAEVKKPGSSVKVSCKASGGTFSNYAISWVRQAPGQGLEWMGGIIPIFGTANYAQKFQGRVTITADESTSTAYMELSSLRSEDTAVYYCARGPEYYDYVWGSYRYNYFDYWGQGTLVTV
VL: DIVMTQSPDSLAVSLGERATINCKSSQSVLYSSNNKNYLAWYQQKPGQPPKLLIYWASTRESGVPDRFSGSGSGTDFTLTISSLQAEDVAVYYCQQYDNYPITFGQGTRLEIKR
notes: Fully human IgG; also called HC/LC pair from SCC C10A
B1: binds [1].

B2: APE583 (antibody, V domains shown)
VH: QVQLVQSGAEVKKPGSSVKVSCKASGGTFSNYAISWVRQAPGQGFEWMGGIIPIFGTANYAQKFQGRVTITADESTSTAYMELSSLRSEDTAVYYCARGPEYYDYVWGSYRYNYFDYWGQGTLVTV
VL: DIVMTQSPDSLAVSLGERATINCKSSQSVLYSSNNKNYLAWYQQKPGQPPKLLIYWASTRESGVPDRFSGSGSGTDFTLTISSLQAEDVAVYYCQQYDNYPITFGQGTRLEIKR
notes: APE391 with the HC mutation L45F
B2: binds [2].

B3: APE803 (antibody, V domains shown)
VH: QVQLVQSGAEVKKPGSSVKVSCKASGDTFSNYATGDTFSNYAISWVRQAPGQGFEWMGGIIPIFGTANYAQKFQGRVTITADESTSTAYMELSSLRSEDTAVYYCARGPEYYAYVWGSYRYNYFDYWGQGTLVTV
VL: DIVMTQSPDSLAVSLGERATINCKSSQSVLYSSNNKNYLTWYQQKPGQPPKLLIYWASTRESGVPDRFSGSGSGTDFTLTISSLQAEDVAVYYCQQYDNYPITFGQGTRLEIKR
notes: HC CDR3 mutation D100A in the context of the APE646 variant
With B3 the Kd [2] was 0.76 nM and the “fold improvement in kon (against APE646)” value [2] was 100 fold.

B4: APE925 (antibody, V domains shown)
VH: QVQLVQSGAEVKKPGSSVKVSCKASGDTFNNYATGDTFSNYAISWVRQAPGQRFEWMGGIIPIFDTANYAQKFQGRVTITADESTNTAYMELSSLRSEDTAVYYCARGPEYYAYVWGSYSYNYFDYWGQGTLVTV
VL: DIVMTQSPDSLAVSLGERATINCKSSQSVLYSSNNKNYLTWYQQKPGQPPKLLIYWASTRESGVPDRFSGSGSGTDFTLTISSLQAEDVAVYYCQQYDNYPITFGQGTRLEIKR
In the case of B4, the Kd [3] is reported as 0.025 nM.
